Data published in patent US9744222B2, “Peptide for vaccine” (Circassia Limited, priority 2007, dated 2017).

Assays:
[1] = system: human MHC class II allotypes; test: Competitive MHC class II binding assay, all allotypes; conditions: competition assay, any allotype
Source text: (§1) This is a characteristic of promiscuous HLA-DRB1* binders.
This is of significance as purities were seen to vary from 60-90%. This would have a considerable effect on the ability of a peptide to compete if it is relatively impure. […] Therefore, if purity is taken into consideration, they may in fact have an equivalent affinity to a peptide of a higher purity.

[2] = Precipitation in aqueous solution of the binding assay; format: physicochemical; conditions: lowest concentration at which an insoluble white precipitate is seen in the aqueous solution of the binding assay
Source text: as §1

DQA1*0102/DQB1*0602 = DQA1*0102/DQB1*0602 (Homo sapiens, UniProt P01909+P01920, A157G/A45G/C70R/E118A/E183D/E77G/F83G/G63E/H151Q/H199R/H252R/H253Q/I129T/I235V/I88M/INS77G/K197Q/L117V/L119F/L178F/L71W/L74F/L85Q/L91A/L98M/N214S/P87R/Q116E/Q76K/R102G/R240Q/R75S/R78G/S102Y/S185I/S41F/S97I/T121G/T122I/T172A/T86R/V229M/V68A/V73E/Y34C/Y41F/Y58L); test: Competitive MHC class II binding assay; conditions: control peptide Human Insulin B 1-15
Experimental: as §1
In addition, to identify lower affinity binders, the assay was also carried out under less stringent conditions. All the Der p binding peptides were seen to have a high ratio when tested against this allotype, showing they were low affinity binders compared to the control peptide. The DQA1*0102/DQB1*0602 binding assay uses a peptide from the B-chain of human insulin which is of lower affinity compared to those used in the DR assays. This dictates that the DQ assay is very sensitive and tends to produce very low ratio values for the strongest binders to this MHC Class II allotype. This sensitivity also accounts for the relatively higher number of DQ binding peptides within the panel screened.

DRB1*0301 = DRB1*0301 (Homo sapiens, UniProt P01903+P01911, A100K/A102G/A103R/A169T/F55Y/I96L/K41T/L162R/M171V/P40S/Q125H/Q178H/Q39Y/R42S/S66N/T106N/T262R/W38E/Y61H); test: Competitive MHC class II binding assay; conditions: control peptide Myco. tuberculosis/leprae hsp 65 2-16
Source text: as §1

[3] = Solubility pre-screen of peptides; conditions: pre-screened for solubility in an aqueous, acidic milieu; YES/NO
DRB1*1501 = DRB1*1501 (Homo sapiens, UniProt P01903+P01911); test: Competitive MHC class II binding assay; conditions: control peptide Human myelin basic protein 85-99
DRB1*1101 = DRB1*1101 (Homo sapiens, UniProt P01903+P01911, A100R/A169T/A87E/I96F/K41T/L162R/M171V/P40S/Q125H/Q178H/Q39Y/Q99D/R42S/S66Y/T262R/V115G/W38E); test: Competitive MHC class II binding assay; conditions: control peptide Influenza haemagglutinin 307-319
DRB1*0701 = DRB1*0701 (Homo sapiens, UniProt P01903+P01911, A100R/A102G/A103Q/D57E/D86V/E43K/F76Y/K127E/L162R/M171V/P40G/Q125H/Q99D/R33Q/R42Y/R54Q/S133A/S66F/T210M/V115G/Y107V/Y59L/Y89S); test: Competitive MHC class II binding assay; conditions: control peptide Influenza haemagglutinin 307-319

Sequence	MHC Class II binding (in words) [1]	Precipitation in assay [2]	Relative binding, ratio of own IC50 to that of the control peptide, DQA1*0102 QB1*0602 (DQA1*0102/DQB1*0602)	Relative binding, ratio of own IC50 to that of the control peptide, DRB1*0301 (DRB1*0301)	Solubility test [3]	Relative binding, ratio of own IC50 to that of the control peptide, DRB1*1501 (DRB1*1501)	Relative binding, ratio of own IC50 to that of the control peptide, DRB1*1101 (DRB1*1101)	Relative binding, ratio of own IC50 to that of the control peptide, DRB1*0701 (DRB1*0701)
DGLEVDVPGIDPNACH [HDM23A]	low affinity binding	None	0.76	347				
CIIHRGKPFQLEA [HDM20]		None	2.37		YES	242.11	28	1.1
